B1: KtrB from Vibrio alginolyticus with deletion of residues 2-19 (natural protein)
chain: MAKGGEPRIILLSFLGVLLPSAVLLTLPVFSVSGLSITDALFTATSAISVTGLGVVDTGQHFTLAGKILLMCLMQIGGLGQMTLSAVLLYMFGVRLSLRQQALAKEALGQERQVNLRRLVKKIVTFALVAEAIGFVFLSYRWVPEMGWQTGMFYALFHSISAFNNAGFALFSDSMMSFVNDPLVSFTLAGLFIFGGLGFTVIGDVWRHWRKGFHFLHIHTKIMLIATPLLLLVGTVLFWLLERHNPNTMGSLTTGGQWLAAFFQSASARTAGFNSVDLTQFTQPALLIMIVLMLIGAGSTSTGGGIKVSTFAVAFMATWTFLRQKKHVVMFKRTVNWPTVTKSLAIIVVSGAILTTAMFLLMLTEKASFDKVMFETISAFATVGLTAGLTAELSEPGKYIMIVVMIIGRIGPLTLAYMLARPEPTLIKYPEDTVLTG
notes: KtrB, Vibrio alginolyticus, with the N-terminal residues 2-19 deleted; Two KtrB dimers stand in the solved assembly: KtrBΔ2-19_(4)A8, deposited as KtrB2A8B2 with the N-terminal KtrB deletion; also called KtrBΔ2-19; KtrAB_(Δ2-19); source: purified as a complex with KtrA (SEC)
B4: KtrB from Vibrio alginolyticus, tagless, full length (natural protein, UniProt O87953 1-455, looked up)
chain: MTQFHQRGVFYVPDGKRDKAKGGEPRIILLSFLGVLLPSAVLLTLPVFSVSGLSITDALFTATSAISVTGLGVVDTGQHFTLAGKILLMCLMQIGGLGQMTLSAVLLYMFGVRLSLRQQALAKEALGQERQVNLRRLVKKIVTFALVAEAIGFVFLSYRWVPEMGWQTGMFYALFHSISAFNNAGFALFSDSMMSFVNDPLVSFTLAGLFIFGGLGFTVIGDVWRHWRKGFHFLHIHTKIMLIATPLLLLVGTVLFWLLERHNPNTMGSLTTGGQWLAAFFQSASARTAGFNSVDLTQFTQPALLIMIVLMLIGAGSTSTGGGIKVSTFAVAFMATWTFLRQKKHVVMFKRTVNWPTVTKSLAIIVVSGAILTTAMFLLMLTEKASFDKVMFETISAFATVGLTAGLTAELSEPGKYIMIVVMIIGRIGPLTLAYMLARPEPTLIKYPEDTVLTG
notes: KtrB, transmembrane pore-forming subunit of the K+ channel KtrAB, Vibrio alginolyticus; C-terminal residue G455; Homodimer; It was in DDM for the deposited structures and in MSP2N2 nanodiscs with E. coli polar lipids for one cryo-EM data set; also called VaKtrB; KtrB dimer; source: E. coli LB2003, membranes mixed with KtrA-containing cytosol, solubilised in DDM, co-purified with KtrA (Ni-NTA, …)

Legend:
[1] = molecular target: T1, KtrAB (KtrB2A8B2 complex) (Vibrio alginolyticus, UniProt O87952); assay: cryo-EM structure, […] Å; format: binding; settings: ADP found despite ATP agarose and ATP in the sample; Mg2+ at alpha-phosphate
T1 construct: gene ktrA; nonphysiological assembly with a second KtrB dimer on the KtrA octamer; full-length, in DDM; wild type purified via ATP agarose; KtrA C-terminal His tag removed by 3C protease; with Ktr system potassium uptake protein B
T1 sequence (O87952 1-220): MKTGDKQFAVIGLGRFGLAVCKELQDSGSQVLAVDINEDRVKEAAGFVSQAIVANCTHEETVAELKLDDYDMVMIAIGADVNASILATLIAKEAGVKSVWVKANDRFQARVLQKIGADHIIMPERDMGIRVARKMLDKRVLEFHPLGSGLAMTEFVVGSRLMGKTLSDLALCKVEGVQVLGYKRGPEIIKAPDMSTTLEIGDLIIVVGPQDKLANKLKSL
T1 sequence (O87953 1-455 partner): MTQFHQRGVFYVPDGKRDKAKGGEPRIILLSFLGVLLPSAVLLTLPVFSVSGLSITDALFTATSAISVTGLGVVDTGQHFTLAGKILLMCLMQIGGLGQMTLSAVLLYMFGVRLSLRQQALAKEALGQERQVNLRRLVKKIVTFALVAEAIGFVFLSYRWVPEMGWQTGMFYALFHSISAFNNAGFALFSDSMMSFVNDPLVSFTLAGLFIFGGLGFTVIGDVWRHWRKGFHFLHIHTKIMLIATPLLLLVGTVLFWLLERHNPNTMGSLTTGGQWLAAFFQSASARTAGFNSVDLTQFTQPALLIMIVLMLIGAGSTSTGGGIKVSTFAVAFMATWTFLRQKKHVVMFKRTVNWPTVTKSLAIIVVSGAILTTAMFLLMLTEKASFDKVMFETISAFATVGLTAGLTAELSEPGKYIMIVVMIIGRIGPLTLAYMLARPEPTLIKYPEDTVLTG

KtrA (VaKtrA, KtrAC3H) [2] = molecular target: T2, KtrA (VaKtrA, KtrAC3H) (Vibrio alginolyticus, UniProt O87952); assay: differential scanning fluorimetry (SYPRO Orange); format: binding; settings: pH 7.5, 20 mM Tris-HCl, 140 mM NaCl, 60 mM KCl; 5 µM KtrA; melting temperature with ligand, not a shift
T2 construct: full-length cytosolic RCK subunit, C-terminal 3C-cleavable His tag (KtrAC3H), eluted with imidazole (tag kept), expressed in E. coli C43(DE3)ΔacrAB; homooctameric ring
T2 sequence (O87952 1-220): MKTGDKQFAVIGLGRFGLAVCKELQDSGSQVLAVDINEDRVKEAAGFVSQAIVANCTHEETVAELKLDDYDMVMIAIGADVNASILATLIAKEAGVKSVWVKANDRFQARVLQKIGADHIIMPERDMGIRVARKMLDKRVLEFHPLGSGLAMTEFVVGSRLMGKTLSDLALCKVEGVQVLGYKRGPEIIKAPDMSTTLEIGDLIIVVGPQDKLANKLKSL

[3] = molecular target: T3, KtrAB (native KtrB2A8 complex) (Vibrio alginolyticus, UniProt O87952); assay: cryo-EM structure, […] Å; format: binding; settings: co-purified ADP, sample prepared with ATP and MgCl2
T3 construct: gene ktrA; full-length complex in DDM; tagless KtrB membranes (E. coli LB2003) mixed with KtrA (C-terminal His tag, removed by 3C protease); KtrA octamer with one KtrB dimer; with Ktr system potassium uptake protein B
T3 sequence (O87952 1-220): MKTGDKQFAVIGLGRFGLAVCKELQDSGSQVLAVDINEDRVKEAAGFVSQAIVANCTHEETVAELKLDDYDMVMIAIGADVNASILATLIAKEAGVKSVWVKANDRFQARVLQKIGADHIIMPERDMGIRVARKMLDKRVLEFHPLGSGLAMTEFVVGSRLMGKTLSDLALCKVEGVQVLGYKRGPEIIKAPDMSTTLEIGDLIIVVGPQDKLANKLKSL
T3 sequence (O87953 1-455 partner): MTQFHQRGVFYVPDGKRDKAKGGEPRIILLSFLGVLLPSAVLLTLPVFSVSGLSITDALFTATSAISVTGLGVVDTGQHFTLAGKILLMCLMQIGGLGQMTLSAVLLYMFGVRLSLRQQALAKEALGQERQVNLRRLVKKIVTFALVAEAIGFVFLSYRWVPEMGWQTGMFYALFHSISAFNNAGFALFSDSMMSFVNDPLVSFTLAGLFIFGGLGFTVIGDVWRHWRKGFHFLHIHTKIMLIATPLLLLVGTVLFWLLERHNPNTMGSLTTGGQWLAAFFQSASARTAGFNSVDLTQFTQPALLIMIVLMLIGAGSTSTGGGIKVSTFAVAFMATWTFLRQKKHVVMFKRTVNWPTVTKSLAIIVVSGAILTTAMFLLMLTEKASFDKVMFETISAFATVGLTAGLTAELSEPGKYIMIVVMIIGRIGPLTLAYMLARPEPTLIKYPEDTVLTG

KtrA (VaKtrA, KtrAC3H) [4] = molecular target: T2, KtrA (VaKtrA, KtrAC3H); assay: isothermal titration calorimetry; format: binding; settings: pH 8, 24 °C, 20 mM HEPES, 140 mM NaCl, 60 mM KCl; one-site fit; no KtrB
[5] = molecular target: the molecule itself; assay: cryo-EM structure; KtrAB with KtrB Δ2-19, KtrBΔ2-19_(4)A8 assembly, supplemented with 1 mM ATP, 3.6 Å, 58,000 particles
[6] = molecular target: B4; assay: cryo-EM structure; natively assembled KtrB2A8 complex in DDM, 2.8 Å, C2 symmetry; sample supplemented with 1 mM ATP and 2 mM MgCl2, ADP found bound; settings: both partners purified
[7] = molecular target: the molecule itself; assay: as above
[8] = molecular target: B1; assay: cryo-EM structure; KtrAB with KtrB Δ2-19, KtrBΔ2-19_(4)A8 assembly, supplemented with 1 mM ATP, 3.6 Å, 58,000 particles; settings: both partners purified
[9] = molecular target: B4; assay: cryo-EM structure; nonphysiological KtrB2A8B2 assembly purified via ATP agarose, in DDM, 2.5 Å, D2 symmetry; 1 mM ATP and 2 mM MgCl2, ADP found bound; settings: both partners purified
[10] = molecular target: the molecule itself; assay: as above

Question: Nc1ncnc2c1ncn2[C@@H]1O[C@H](COP(=O)(O)OP(=O)(O)O)[C@@H](O)[C@H]1O [ADP] was tested. Which “cryo-EM structure, 2.5 Å” value [1] did it give?
Answer: ADP molecules bound to the N lobes of each of the eight KtrA subunits

Question: And the Tm (KtrA (VaKtrA, KtrAC3H) [2])?
Answer: 67 °C

Question: What about the “cryo-EM structure, 2.8 Å” value [3] of the same molecule?
Answer: KtrA ring contains non-protein densities corresponding to ADP molecules

Question: And the Kd (KtrA (VaKtrA, KtrAC3H) [4])?
Answer: 3.4 µM

Question: What does the source list for Nc1ncnc2c1ncn2[C@@H]1O[C@H](COP(=O)(O)OP(=O)(O)OP(=O)(O)O)[C@@H](O)[C@H]1O [ATP]?
Answer: Tm (KtrA (VaKtrA, KtrAC3H) [2]): 55 °C; Kd (KtrA (VaKtrA, KtrAC3H) [4]): 2.4 µM

Question: Does B1 bind [5]?
Answer: binds

B2: KtrA from Vibrio alginolyticus, His tag cleaved off with 3C protease (natively assembled KtrB2A8 preparation) (natural protein, UniProt O87952 1-220, looked up)
chain: MKTGDKQFAVIGLGRFGLAVCKELQDSGSQVLAVDINEDRVKEAAGFVSQAIVANCTHEETVAELKLDDYDMVMIAIGADVNASILATLIAKEAGVKSVWVKANDRFQARVLQKIGADHIIMPERDMGIRVARKMLDKRVLEFHPLGSGLAMTEFVVGSRLMGKTLSDLALCKVEGVQVLGYKRGPEIIKAPDMSTTLEIGDLIIVVGPQDKLANKLKSL
notes: KtrA, cytosolic RCK subunit of the K+ channel KtrAB, Vibrio alginolyticus; full-length KtrAB; Residues of the 3C site may remain at the C-terminus after cleavage; also called VaKtrA; KtrAC3H; source: E. coli C43(DE3)ΔacrAB; not shown: His tag, C-terminal, cleaved
Question: What does the source list for B2?
Answer: binding result [6]: binds; stoichiometry N [7]: 8

B3: KtrA from Vibrio alginolyticus with C-terminal His tag (KtrAC3H), eluted with imidazole (natural protein, UniProt O87952 1-220, looked up)
chain: MKTGDKQFAVIGLGRFGLAVCKELQDSGSQVLAVDINEDRVKEAAGFVSQAIVANCTHEETVAELKLDDYDMVMIAIGADVNASILATLIAKEAGVKSVWVKANDRFQARVLQKIGADHIIMPERDMGIRVARKMLDKRVLEFHPLGSGLAMTEFVVGSRLMGKTLSDLALCKVEGVQVLGYKRGPEIIKAPDMSTTLEIGDLIIVVGPQDKLANKLKSL
notes: KtrA, cytosolic RCK subunit of the K+ channel KtrAB, Vibrio alginolyticus; full-length KtrAB; Same construct as m1; Here no 3C cleavage is reported: imidazole elution for isolated KtrA, and imidazole removal is mentioned before the ATP agarose step; also called VaKtrA; isolated KtrA ring; source: E. coli C43(DE3)ΔacrAB, purified (Ni-NTA eluted with imidazole, SEC); for KtrB2A8B2 also ATP agarose
Question: Does B3 bind [8]?
Answer: binds

Question: Does B3 bind [9]?
Answer: binds

Question: What about the “stoichiometry N” value [10] of the same molecule?
Answer: 8

Question: B4 was tested. Which “stoichiometry N” value [7] did it give?
Answer: 2
